Target: the molecule itself
Experiment: SEC

B1: Aeropyrum pernix Kv (KvAP) channel, wild type (natural protein, UniProt Q9YDF8 1-295, looked up)
chain: MSVERWVFPGCSVMARFRRGLSDLGGRVRNIGDVMEHPLVELGVSYAALLSVIVVVVEYTMQLSGEYLVRLYLVDLILVIILWADYAYRAYKSGDPAGYVKKTLYEIPALVPAGLLALIEGHLAGLGLFRLVRLLRFLRILLIISRGSKFLSAIADAADKIRFYHLFGAVMLTVLYGAFAIYIVEYPDPNSSIKSVFDALWWAVVTATTVGYGDVVPATPIGKVIGIAVMLTGISALTLLIGTVSNMFQKILVGEPEPSCSPAKLAEMVSSMSEEEFEEFVRTLKNLRRLENSMK
stoichiometry N: 4
